Measurements reported in patent US20160199438A1 (Eli Lilly, published 2016).
Numbering of substitutions follows the chain as printed.

T1: human glucose-dependent insulinotropic polypeptide receptor (human, UniProt P48546 22-466)
T1 sequence (looked up): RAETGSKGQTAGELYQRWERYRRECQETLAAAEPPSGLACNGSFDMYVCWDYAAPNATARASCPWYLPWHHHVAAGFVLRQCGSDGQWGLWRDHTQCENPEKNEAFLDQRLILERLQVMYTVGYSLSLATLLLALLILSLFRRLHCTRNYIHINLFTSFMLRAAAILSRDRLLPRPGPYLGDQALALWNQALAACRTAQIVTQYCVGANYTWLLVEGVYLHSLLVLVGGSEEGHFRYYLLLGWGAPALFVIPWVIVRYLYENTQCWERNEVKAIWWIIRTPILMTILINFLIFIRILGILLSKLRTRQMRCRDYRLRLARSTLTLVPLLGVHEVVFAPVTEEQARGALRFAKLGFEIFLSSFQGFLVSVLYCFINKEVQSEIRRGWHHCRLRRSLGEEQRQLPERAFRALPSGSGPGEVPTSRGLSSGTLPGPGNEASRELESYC

T2: GIP receptor of GLUTag cells (murine (the cell line is stated to be …, UniProt Q0P543 19-460))
T2 sequence (looked up): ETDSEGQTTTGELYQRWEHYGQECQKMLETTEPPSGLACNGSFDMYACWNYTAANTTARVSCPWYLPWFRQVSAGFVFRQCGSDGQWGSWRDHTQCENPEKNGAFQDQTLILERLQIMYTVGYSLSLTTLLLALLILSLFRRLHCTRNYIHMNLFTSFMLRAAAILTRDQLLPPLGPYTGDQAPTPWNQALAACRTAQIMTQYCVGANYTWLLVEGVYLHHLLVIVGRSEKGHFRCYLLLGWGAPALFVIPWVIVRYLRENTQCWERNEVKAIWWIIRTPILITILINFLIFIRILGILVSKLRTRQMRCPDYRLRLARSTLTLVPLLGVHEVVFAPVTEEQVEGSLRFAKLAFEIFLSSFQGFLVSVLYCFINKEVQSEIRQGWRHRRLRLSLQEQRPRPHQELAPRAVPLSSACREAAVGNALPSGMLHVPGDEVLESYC

T3: human GLP-2 receptor (human, UniProt O95838 1-553)
T3 sequence (looked up): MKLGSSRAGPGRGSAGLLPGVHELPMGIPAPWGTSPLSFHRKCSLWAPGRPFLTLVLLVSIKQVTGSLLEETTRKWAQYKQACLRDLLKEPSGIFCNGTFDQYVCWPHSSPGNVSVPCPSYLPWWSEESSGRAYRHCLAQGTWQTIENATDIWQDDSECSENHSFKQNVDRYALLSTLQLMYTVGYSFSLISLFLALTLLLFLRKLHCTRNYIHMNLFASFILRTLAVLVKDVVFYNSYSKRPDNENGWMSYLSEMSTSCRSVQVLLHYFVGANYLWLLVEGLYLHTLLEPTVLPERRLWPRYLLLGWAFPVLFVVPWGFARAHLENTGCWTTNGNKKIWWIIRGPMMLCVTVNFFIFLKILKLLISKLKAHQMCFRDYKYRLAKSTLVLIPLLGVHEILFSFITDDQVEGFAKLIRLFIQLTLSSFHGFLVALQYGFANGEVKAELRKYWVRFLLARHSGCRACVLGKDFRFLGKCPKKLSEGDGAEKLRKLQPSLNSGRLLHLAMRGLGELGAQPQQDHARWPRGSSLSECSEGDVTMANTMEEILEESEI

B1: Example 3 (peptide)
peptide: YXEGTFTSDYSIXLDKIAQKAFVQWLIAGGPSSGAPPPS
modifications: Aib at positions 2 and 13; K at position 20 conjugated at the epsilon-amino group with ([2-(2-Amino-ethoxy)-ethoxy]-acetyl)2-(γGlu)1-CO-(CH2)16-CO2H; C-terminal primary amide
notes: Synthetic acylated peptide, trifluoroacetate salt
B2: Example 5 (peptide)
peptide: B1 peptide
modifications: Aib at positions 2 and 13; K at position 20 conjugated at the epsilon-amino group with ([2-(2-Amino-ethoxy)-ethoxy]-acetyl)2-(γGlu)2-CO-(CH2)18-CO2H; C-terminal primary amide
notes: as for B1
B3: Example 4 (peptide)
peptide: B1 peptide
modifications: Aib at positions 2 and 13; K at position 20 conjugated at the epsilon-amino group with ([2-(2-Amino-ethoxy)-ethoxy]-acetyl)2-(γGlu)2-CO-(CH2)16-CO2H; C-terminal primary amide
notes: as for B1
B4: Example 2 (peptide)
peptide: B1 peptide with F22X
modifications: Aib at positions 2 and 13; K at position 20 conjugated at the epsilon-amino group with ([2-(2-Amino-ethoxy)-ethoxy]-acetyl)2-(γGlu)2-CO-(CH2)18-CO2H; 1-Nal at position 22; C-terminal primary amide
notes: as for B1
B5: Example 1 (peptide)
peptide: B1 peptide
modifications: Aib at positions 2 and 13; K at position 20 conjugated at the epsilon-amino group with ([2-(2-Amino-ethoxy)-ethoxy]-acetyl)2-(γGlu)1-CO-(CH2)18-CO2H; C-terminal primary amide
B6: Example 8 (peptide)
peptide: B1 peptide with F22X
modifications: Aib at positions 2 and 13; K at position 20 conjugated at the epsilon-amino group with ([2-(2-Amino-ethoxy)-ethoxy]-acetyl)2-(γGlu)1-CO-(CH2)18-CO2H; 1-Nal at position 22; C-terminal primary amide
notes: as for B1
B7: Example 6 (peptide)
peptide: B1 peptide with F22X
modifications: Aib at positions 2 and 13; K at position 20 conjugated at the epsilon-amino group with ([2-(2-Amino-ethoxy)-ethoxy]-acetyl)2-(γGlu)1-CO-(CH2)16-CO2H; 1-Nal at position 22; C-terminal primary amide
notes: as for B1
B8: Example 7 (peptide)
peptide: B1 peptide with F22X
modifications: Aib at positions 2 and 13; K at position 20 conjugated at the epsilon-amino group with ([2-(2-Amino-ethoxy)-ethoxy]-acetyl)2-(γGlu)2-CO-(CH2)16-CO2H; 1-Nal at position 22; C-terminal primary amide
notes: as for B1

Target: T4, human glucagon-like peptide 1 receptor (human, UniProt P43220 24-463)
Assay: cell-based or functional assay

In order of rising “EC50 (intracellular cAMP)” value:
1. B7  0.0284 µM
2. B1  0.0339 µM
3. B8  0.0355 µM
4. B6  0.0579 µM
5. B4  0.0757 µM

In order of rising “Emax, % (intracellular cAMP)” value:
1. B5  85.2%
2. B6  88.4%
3. B1  96.2%
4. B8  97.2%
5. B4  98.2%
6. B3  100%
7. B7  104%
8. B2  105%

Target: T1, human glucose-dependent insulinotropic …
Assay: cell-based or functional assay

In order of falling “EC50 (intracellular cAMP)” value:
1. B6  0.0211 µM
2. B4  0.0175 µM
3. B2  0.00876 µM
4. B8  0.00807 µM
5. B7  0.0044 µM
6. B3  0.00376 µM
7. B1  0.00315 µM

In order of rising “Emax, % (intracellular cAMP)” value:
1. B4  94.7%
2. B5  97.9%
3. B2  105%
4. B1  106%
5. B7  106%
6. B8  106%
7. B6  108%

Target: human glucagon receptor (human, UniProt P47871 26-477)
Sequence (P47871 26-477): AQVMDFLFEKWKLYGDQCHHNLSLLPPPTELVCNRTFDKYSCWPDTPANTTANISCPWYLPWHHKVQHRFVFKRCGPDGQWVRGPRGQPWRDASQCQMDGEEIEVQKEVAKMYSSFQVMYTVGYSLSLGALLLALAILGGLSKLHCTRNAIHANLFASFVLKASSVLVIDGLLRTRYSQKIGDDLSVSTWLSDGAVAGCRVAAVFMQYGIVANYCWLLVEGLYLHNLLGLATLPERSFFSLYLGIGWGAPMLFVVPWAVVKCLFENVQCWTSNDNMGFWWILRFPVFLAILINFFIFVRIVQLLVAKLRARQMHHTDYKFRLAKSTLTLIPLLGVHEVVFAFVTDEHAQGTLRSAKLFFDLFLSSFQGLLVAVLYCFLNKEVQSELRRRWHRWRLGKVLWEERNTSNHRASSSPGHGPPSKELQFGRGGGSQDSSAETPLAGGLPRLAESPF
Assay: cell-based or functional assay

B4 and B6 cannot be ordered by “EC50 (intracellular cAMP)” value: > 1 µM for the first, > 1 µM for the second.

B7 and B8 cannot be ordered by “EC50 (intracellular cAMP)” value: > 1 µM for the first, > 1 µM for the second.

Target: T2, GIP receptor of GLUTag cells
Assay: cell-based or functional assay

In order of falling “Average EC50, cAMP in GLUTag cells” value:
1. B4  2.92 µM
2. B8  2.75 µM
3. B3  2.19 µM
4. B1  1.61 µM
5. B5  1.49 µM

Target: T4, human glucagon-like peptide 1 receptor
Assay: Ki ratio hGLP-1R/hGIP-R normalized by 4.53 (native GLP-1/GIP), radioligand competition

In order of falling “Molar ratio of hGLP-1R/hGIP-R” value:
1. B7  1.83
2. B8  1.68
3. B4  1.19
4. B6  0.99

Target: T4, human glucagon-like peptide 1 receptor
Assay: ratio of Ki on hGLP-1R to Ki on hGIP-R (reference), radioligand competition

In order of falling “Absolute ratio of hGLP-1R/hGIP-R” value:
1. B7  8.3
2. B8  7.6
3. B4  5.4
4. B6  4.5

Target: human glucose-dependent insulinotropic polypeptide receptor (human) (UniProt P48546)
Assay: cell-based or functional assay

Work on “human GIP(1-42)NH2 (from UniProt P09681 52-93) (ligand)” yielded an Emax, % (intracellular cAMP) of 100%.

Target: T1, human glucose-dependent insulinotropic …
Assay: competition of [125I]GIP, SPA, hGIP-R CHO-S membranes; Ki by Cheng-Prusoff
Protocol: The compounds are serially diluted into binding buffer. Next, 10 μL diluted compound or 100% DMSO is transferred into Corning® 3632 clear bottom assay plates containing 40 μL assay binding buffer or cold GIP (NSB at 0.1 μM final). Then, 90 μL membranes (3 μg/well), 50 μL [|¹²⁵|] GIP (Perkin Elmer Life and Analytical Sciences at 0.15 nM final in reaction), and 50 μL of WGA beads (150 μg/well) is added, sealed, and mixed on a plate shaker for 1 minute. Plates are read with a MicroBeta® scintillation counter after 12 hours of settling time at room temperature.
(§1) The IC₅₀ concentration is converted to Ki using the Cheng-Prusoff equation.

In order of rising Ki:
1. B2  0.0178 µM
2. B1  0.0267 µM
3. B3  0.0407 µM
4. B7  0.0442 µM
5. B8  0.0461 µM
6. B4  0.0639 µM
7. B6  0.0675 µM

Target: T4, human glucagon-like peptide 1 receptor
Assay: competition of I-125 GLP-1, SPA, hGLP-1R 293HEK membranes; Ki by Cheng-Prusoff
Protocol: The hGLP-1R cDNA is subcloned into the expression plasmid phD (Trans-activated expression of fully gamma-carboxylated recombinant human protein C, an antithrombotic factor. Grinnell, B. W., Berg, D. T., Walls, J. and Yan, S. B. Bio/Technology 5: 1189-1192, 1987). This plasmid DNA is transfected into 293HEK cells and selected with 200 μg/mL Hygromycin.
The binding buffer contains 25 mM HEPES, pH 7.4, 2.5 mM CaCl₂, 1 mM MgCl₂, 0.1% fatty acid free BSA, 0.003% Tween20, and Roche Complete™ Inhibitors without EDTA. […] The peptide analog is dissolved in 100% DMSO and serially diluted in 100% DMSO. Next, 10 μL diluted compounds of the present invention or 100% DMSO are transferred into Corning® 3632 clear bottom assay plates containing 40 μL assay binding buffer or cold glucagon (NSB at 1 μM final). […] Plates are read with a PerkinElmer Life and Analytical Sciences Trilux MicroBeta® scintillation counter after 12 hours of settling time at room temperature.
as §1

In order of rising Ki:
1. B2  0.158 µM
2. B6  0.307 µM
3. B4  0.344 µM
4. B8  0.352 µM
5. B7  0.365 µM
6. B1  0.427 µM
7. B3  0.714 µM

Target: T3, human GLP-2 receptor
Assay: cell-based or functional assay

In order of falling Rel EC50 (intracellular cAMP):
1. B8  1.8 µM
2. B4  1.61 µM
3. B3  0.405 µM
4. B1  0.199 µM
5. C18-acylated human GLP-2 control (from UniProt P01275 146-178) (peptide)  0.00186 µM
